Data published in US20180298401A1 (CORNELL UNIVERSITY, published 2018).

Experiments:
[1] = molecular target: T1, Large subunit (LSU) of Synechococcus elongatus PCC7942 Rubisco (Synechococcus elongatus PCC7942, UniProt Q31NB3 1-472); test: native PAGE with Coomassie stain and immunoblots
T1 construct: also called cyanobacterial LSU; Se LSU

[2] = molecular target: T2, Rubisco from the cyanobacterium Synechococcus elongatus PCC7942 (hexadecameric holoenzyme of eight LSU and … (Synechococcus elongatus PCC7942, UniProt Q31NB3 1-472; Q31NB2 1-111); test: quantitative immunoblots of SeLSM35 leaf homogenates against purified protein standards
T2 construct: also called Se7942 Rubisco; cyanobacterial Rubisco
Excerpt: SDS page, immunoblot and determination of CcmM35/Rubisco content. The crude leaf homogenates used in the carboxylase activity measurements were separated by SDS-PAGE using 4-20% polyacrylamide gradient gels (ThermoScientific, UK). For each sample, the same amount of protein, as determined by Bradford assay, was loaded onto the gel. After electrophoresis, the resolved proteins were transferred to a nitrocellulose membrane (Hybond-C Extra from GE Healthcare Life Sciences) using a western blot apparatus. The nitrocellulose membranes were immunoblotted using one of four primary polyclonal antibodies raised against: cyanobacterial (SePCC6301) Rubisco; tobaccoRubisco; the small subunit of tobacco Rubisco; and CcmM from Se PCC7942. The primary polyclonal antibody to detect CcmM35 was generated in rabbit with His-tagged CcmM58 protein purified from E. coli (Cambridge Research Biochemicals, UK) and used at a dilution of 1:500 in the immunoblots and from 1:500 to 1:2,000 for immunogold labelling, and was highly specific for CcmM (FIG. 2a). The primary antibodies were visualized by means of a secondary goat anti-rabbit peroxidase-conjugated antibody (Sigma). The absolute and relative content of Synechococcus Rubisco and CcmM35 in SeLSM35 leaves were determined using immunoblots with antibodies against CcmM and cyanobacterial Rubisco. […]

Row | binding result [1] | stoichiometry of CcmM35 per Rubisco holoenzyme [2] | Binder
1 | binds | – | Small subunit (SSU) of Synechococcus elongatus PCC7942 Rubisco (enzyme, UniProt Q31NB2 1-111, looked up, also called cyanobacterial SSU; Se-rbcS product) MSMKTLPKERRFETFSYLPPLSDRQIAAQIEYMIEQGFHPLIEFNEHSNPEEFYWTMWKLPLFDCKSPQQVLDEVRECRSEYGDCYIRVAGFDNIKQCQTVSFIVHRPGRY
2 | – | ~4.5 CcmM35 per Rubisco holoenzyme | CcmM35, internal carboxysomal protein of Synechococcus elongatus PCC7942 (other, UniProt Q03513-2 1-324, looked up, domain: CcmM35; CcmM35 lacks the amino-terminal domain; Untagged as expressed in the SeLSM35 tobacco line; also called Se-ccmM35 product) MSAYNGQGRLSSEVITQVRSLLNQGYRIGTEHADKRRFRTSSWQPCAPIQSTNERQVLSELENCLSEHEGEYVRLLGIDTNTRSRVFEALIQRPDGSVPESLGSQPVAVASGGGRQSSYASVSGNLSAEVVNKVRNLLAQGYRIGTEHADKRRFRTSSWQSCAPIQSSNERQVLAELENCLSEHEGEYVRLLGIDTASRSRVFEALIQDPQGPVGSAKAAAAPVSSATPSSHSYTSNGSSSSDVAGQVRGLLAQGYRISAEVADKRRFQTSSWQSLPALSGQSEATVLPALESILQEHKGKYVRLIGIDPAARRRVAELLIQKP
